B1: NCI-CoV-S2A9 (VNAR)
VNAR: ARVDQTPRSVTKETGESLTINCVLRDASYALGRTCWYRKKSGSTNEESISKGGRYVETVNSGSKSFSLRINDLTVEDGGTYRCGVSTPWSCDYGPLCFYAACGDGTVVTVN
B2: NCI-CoV-S2G8 (VNAR)
VNAR: ARVDQTPQTITKETGESLTINCVLRDSNCPLSNTYWYRKKSGSTNEESISKGGRYVETVNSGSKSFSLRINDLTVEDSGTYRCKVRTHWSICWEMGLEPNYDVYGGGTVVTVN
B3: NCI-CoV-S3A10 (VNAR)
VNAR: ARVDQTPRSVTKETGESLTINCVLRDASYALGSTCWYRKKSGSTNEESISKGGRYVETVNSGSKSFSLRINDLTVEDGGTYRCGRIQNTKAVLLPCVYAACGDGTVVTVN
B4: NCI-CoV-CL3H4 (VHH)
VHH: DVQLVESGGGAVKPGGSLTLTCTVQEGSRNCVGWFRQGSGKDRQAVAMINGNGGTTNYDDRVKGRFQISRDGSLVHLRMNDVKLGDTDIYYCRQGQTYDCWGGTWTDSGWGQGTQVTVSS
B5: NCI-CoV-CGF10 (VHH)
VHH: AVQLVESGGGLVQPGGSLRLSCAASGFTFSSYGMHWVRQAPGKGLERVAGINWDGSNSYYTETVKGRFTISRDNAKNTAYLQMNSLKPEDTAMYYCRTLILDSDCDPGSTYRYAWGQGTQVTVSS
B6: NCI-CoV-S4A9 (VNAR)
VNAR: ARVDQTPRSVTKETGESLTINCVLRDASYALGSTCWYRKKSGSTNEESISKGGRYVETVNSGSKSFSLRINDLTVEDGGTYRCGVQSRWGAVPKLCSNYAACGDGTAVTVN
B7: NCI-CoV-CG2G2 (VHH)
VHH: AVQLVESGGGSVPPGGSLTLSCTVSDNIFRTYAVGWFRQAPEKRCQWIATLNADESTEYNVAVTGRFTISRDNSGRSVYLQMDNLNSEDTAIYYCASLARKWSCHDSWGRGTQVTVSS
B8: NCI-CoV-CGH3 (VHH)
VHH: AVQLVESGGGLVQPGGSLRLSCAASGFTFSSYAMGWVRQAPGKGLEWISAINSGGDIRYYADSVKGRFTISRDNAKNTLYLQMNSLKPEDTAVYYCATDDEILSYGLGTSFDYWGQGTQVTVSS
B9: NCI-CoV-CG2D11 (VHH)
VHH: AVQLVDSGGGSVQAGGSLRLSCAGSAFTYSSYCMGWFRQAPGKEREAVAAINSGTSSTYYADSVKGRFTVSQDNANNTVYLLMISLKPEDTAIYICAALVAPDYDDYDVAAPDNFDYWGQGTQVTVSS
B10: NCI-CoV-CLA2 (VHH)
VHH: QVQLVESGGGSVQPGGSLRLSCAVSGYTSSSYCFGWFRQAPGKDREGIIAMEPGNTYTAGAVKGRFTISRDNAKNMVYLQMNSLKPDDTAMYYCAASPYPGTWLNPDLFDTWGQGTQVTVSS

Tests used:
[1] = target: T1, SARS-CoV-2 spike protein on pseudovirus (SARS-CoV-2, UniProt P0DTC2 14-1273); test: cell-based or functional assay
[2] = target: T1, SARS-CoV-2 spike protein on pseudovirus; test: cell-based or functional assay; remark: listed apart in the source
[3] = target: SARS-CoV-1 spike protein on pseudovirus (SARS-CoV-1, UniProt P59594 14-1255); test: cell-based or functional assay
[4] = target: T1, SARS-CoV-2 spike protein on pseudovirus; test: cell-based or functional assay; remark: listed apart in the source
BSA [5] = target: T2, BSA (bovine, UniProt P02769); test: Protein ELISA, antigen coated, HRP-anti-Flag detection, absorbance 450 nm
T2 construct: also called bovine serum albumin

BSA [6] = target: T2, BSA; test: as above; remark: listed apart in the source
A431-SARS-CoV-S = test: Flow cytometry on A431 cells expressing SARS-CoV spike, anti-FLAG-APC detection
BSA [7] = target: T2, BSA; test: Protein ELISA, antigen coated, HRP-anti-Flag detection, OD450

T2 sequence (P02769 25-607 limits assumed): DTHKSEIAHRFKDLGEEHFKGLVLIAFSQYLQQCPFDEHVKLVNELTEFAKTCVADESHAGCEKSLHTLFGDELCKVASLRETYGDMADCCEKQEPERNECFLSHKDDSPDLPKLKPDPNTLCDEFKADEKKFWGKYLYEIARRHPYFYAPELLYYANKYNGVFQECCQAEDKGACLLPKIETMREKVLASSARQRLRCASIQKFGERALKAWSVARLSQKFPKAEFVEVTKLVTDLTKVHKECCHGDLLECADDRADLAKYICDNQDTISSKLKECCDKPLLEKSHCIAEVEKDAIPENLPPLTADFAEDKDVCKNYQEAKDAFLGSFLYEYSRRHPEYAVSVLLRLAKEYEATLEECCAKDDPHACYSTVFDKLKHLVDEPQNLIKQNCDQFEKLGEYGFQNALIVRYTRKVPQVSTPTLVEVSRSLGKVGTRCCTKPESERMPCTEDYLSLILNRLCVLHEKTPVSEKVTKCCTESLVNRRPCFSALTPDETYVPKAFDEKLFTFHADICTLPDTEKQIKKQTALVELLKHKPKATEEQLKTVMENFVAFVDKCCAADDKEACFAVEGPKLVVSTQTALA

Binder | Neutralizing Power, SARS-CoV-2 Pseudovirus Neutralization Assay [2] [%] | binding result (A431-SARS-CoV-S) | also measured
B1 | 90 |  | IC50, neutralization of the original strain of SARS-CoV-2 pseudovirus [1]: 1.39 µM; IC50, pseudovirus neutralization (luciferase, 293-hACE2 cells) [1]: 1.29 µM; IC50 for neutralizing pseudovirus [3]: 49.3 µM; IC50 for neutralizing pseudovirus [4]: 4.34 µM; binding result (BSA [5]): no binding (tested: 10 µg/ml)
B2 | 50 | binds | binding result (BSA [6]): no binding (tested: 10 µg/ml)
B3 | 60 |  | 
B4 | 30 |  | 
B5 | 20 | no binding | 
B6 | 30 |  | 
B7 | 50 |  | binding result (BSA [7]): no binding (tested: 10 µg/ml)
B8 | 30 | no binding | 
B9 | 40 |  | 
B10 | 45 |  | 

Reference: US20240417446A1 (US Dept. of Health and Human Services, published 2024)
